Assay results reported in patent EP1257175B1.

How the values were obtained:
Assay in all cases: cell-based or functional assay
[1] = target: SAVINASE, subtilisin derived from Bacillus clausii (previously Bacillus lentus NCIB 10309) (Bacillus clausii (previously Bacillus lentus NCIB 10309)) (UniProt P29600)
[2] = target: protease derived from Paecilomyces lilacinus CBS 102449 (Paecilomyces lilacinus CBS 102449)
[3] = target: Sub.Novo(Y217L), mutant of subtilisin from Bacillus amyloliquefaciens (Bacillus amyloliquefaciens) (UniProt P00782)
[4] = target: protease derived from Bacillus sp. NCIMB 40484 (Bacillus sp. NCIMB 40484)
[5] = target: Sub.Novo, subtilisin from Bacillus amyloliquefaciens (Bacillus amyloliquefaciens) (UniProt P00782)
[6] = target: protease derived from Bacillus alcalophilus NCIMB 10438 (Bacillus alcalophilus NCIMB 10438)
[7] = target: protease derived from Aspergillus sp. CBS 102448
[8] = target: protease derived from Acremonium chrysogenum ATCC 48272 (Acremonium chrysogenum ATCC 48272)
[9] = target: protease derived from Fusarium oxysporum IFO 4471 (Fusarium oxysporum IFO 4471)

Substance “Streptomyces Subtilisin Inhibitor (SSI) (from UniProt P01006 32-144)” has a Residual activity (%) [1] of 0%, a Residual activity (%) [2] of 0.1% and a Residual activity (%) [3] of 0%. For the same substance, the Residual activity (%) [4] was 4.3%, the Residual activity (%) [5] was 0.1% and the Residual activity (%) [6] was 0%. It also gave a Residual activity (%) [7] of 0.1%, a Residual activity (%) [8] of 0.1% and a Residual activity (%) [9] of 0.1%.
